# Laboratory results published in patent US20150231240A1, “ANTI-C16ORF54 ANTIBODIES AND METHODS OF USE THEREOF” (priority 2012, published 2015).
# T1: extracellular domain of c16orf54 (amino acids 1-31) fused to human IgG1 Fc (Homo sapiens, UniProt Q6UWD8)
# T1 construct: the extracellular domain of c16orf54 (amino acids 1-31) either N terminal or C-terminal to a human IgG1 Fc domain; made in house; host or cells: 293 T cells, transient; Protein A purification
# T1 sequence (Q6UWD8 1-31 limits assumed): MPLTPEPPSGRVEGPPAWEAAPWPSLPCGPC
# T2: human C16orf54 extracellular domain peptides (Homo sapiens, UniProt Q6UWD8)
# T2 sequence (Q6UWD8 1-31): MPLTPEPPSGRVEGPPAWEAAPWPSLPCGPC
# T3: human C16orf54 (Homo sapiens, UniProt Q6UWD8)
# T3 construct: expressed in transfected cells; host or cells: murine sarcoma cells (D42M1-huC16orf54)
# T3 sequence (Q6UWD8 1-224): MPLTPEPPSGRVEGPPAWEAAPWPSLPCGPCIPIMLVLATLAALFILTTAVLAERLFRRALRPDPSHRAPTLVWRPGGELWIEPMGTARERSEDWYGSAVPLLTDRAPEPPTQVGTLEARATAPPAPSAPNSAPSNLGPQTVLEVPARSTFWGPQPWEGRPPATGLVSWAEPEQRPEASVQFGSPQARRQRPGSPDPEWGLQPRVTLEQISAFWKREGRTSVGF
# T4: N-terminal 32 amino acids of huC16orf54 (Homo sapiens, UniProt Q6UWD8)
# T4 sequence (Q6UWD8 1-32 limits assumed): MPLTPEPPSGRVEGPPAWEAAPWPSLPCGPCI
# T5: huC16orf54 (cells expressing C16orf54) (Homo sapiens, UniProt Q6UWD8)
# T5 construct: expressed in transfected cells; host or cells: murine sarcoma cell line, retrovirally transduced (inferred from b529 and b531; b587 says only 'cells expressing C16orf54')
# T5 sequence (Q6UWD8 1-224): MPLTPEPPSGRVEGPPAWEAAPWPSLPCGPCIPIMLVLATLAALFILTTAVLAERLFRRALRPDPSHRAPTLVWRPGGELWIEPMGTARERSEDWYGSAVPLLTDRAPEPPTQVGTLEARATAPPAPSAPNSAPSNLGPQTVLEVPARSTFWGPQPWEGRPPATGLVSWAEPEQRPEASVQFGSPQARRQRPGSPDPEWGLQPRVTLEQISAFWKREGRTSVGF
# Columns and labels:
# [1] = biological target: T1, extracellular domain of c16orf54 (amino acids 1-31) fused to human IgG1 Fc; assay: C16orf54 peptide-Fc fusion protein ELISA; format: binding; details: serial dilution of antibody; HRP-conjugated anti mouse secondary
# Experimental: Anti-C16orf54 antibodies which bind to human C16orf54, including antibodies that are crossreactive with cyno C16orf54, were tested for their binding to various peptides derived from C16orf54 that were fused to human IgG (e.g., IgG1) constant regions to generate various peptide-Fc fusion proteins in an Fc-based ELISA. An exemplary Fc sequence comprises an IgG1 Hinge region sequence and IgG1 CH3 and […] domain sequences.
# The fusion proteins were transiently expressed in 293 T cells. Protein was purified from the 293 expression supernatants by Protein A-based affinity purification. Exemplary C16 peptide-Fc fusion constructs that were made and purified are shown with their protein yield in Table 38. ELISA assays were performed by coating 384 well plates with the fusion proteins overnight at 4C. Antibodies were analyzed by serial dilution with concentrations ranging from 40 ug/mL to […]. Binding was detected with an HRP-conjugated anti mouse secondary antibody.
# [2] = tested on: human C16orf54 extracellular domain peptides; assay: C16orf54 peptide ELISA, human extracellular domain peptides; format: binding; details: human, cyno, or mouse extracellular domain peptides, not told apart; 10 μg/ml antibody
# Experimental: (§1) Anti-C16orf54 antibodies which bind to human C16orf54, including antibodies that are crossreactive with cyno C16orf54, were tested for their binding to various peptides derived from C16orf54 in a peptide ELISA. A 384-well high binding black microplate (Greiner) was incubated with 2 μg/ml of protein (human, cyno, or mouse extracellular domain peptides) for 16 hours, incubated for 1 hr with a blocking buffer (PBS with 5% Fetal Bovine Serum), washed four times with TBS with Tween, incubated for 1 hour with 10 μg/ml of anti-C16orf54 antibody, washed four times with TBS with Tween, incubated for 1 hour with 10 μg/ml of Peroxidase-AffiniPure Goat Anti-Mouse IgG, Fcγ Fragment Specific (Jackson ImmunoResearch), washed four times with TBS with Tween, and peroxidase was detected with a luminometer (Molecular Devices) upon addition of SuperSignal® ELISA Pico Chemiluminescent Substrate (Thermo Scientific). The luminescence signal was determined.
# [3] = biological target: T2, human C16orf54 extracellular domain peptides; assay: as above; format: binding; details: peptide ELISA, 10 μg/ml antibody
# Experimental: as §1
# [4] = biological target: T3, human C16orf54; assay: Flow cytometry reactivity with sarcoma cells expressing human C16orf54 (fold change over isotype); format: binding
# Experimental: (§2) Anti-C16orf54 antibodies which bound to human C16orf54 were tested for their reactivity with human C16orf54 and their crossreactivity with C16orf54 from cynomolgous monkeys (cyno C16orf54) using flow cytometry. Sarcoma cells transfected with and expressing human C16orf54 or cyno C16orf54 were washed with PBS with 0.1% BSA, incubated with FcX receptor blocking solution (BioLegend) for 15 minutes, incubated with 10 μg/ml of anti-C16orf54 antibody for 1 hour at 4° C., washed twice with PBS with 0.1% BSA, incubated with 20 μg/ml of R-Phycoerythrin-AffiniPure F(ab′)2 Fragment Goat Anti-Mouse IgG, Fcγ Fragment Specific (Jackson ImmunoResearch) for 30 minutes at 4° C., washed twice with PBS with 0.1% BSA, incubated with the viability dye TO-PRO-3 iodide (Life Technologies), and immediately analyzed on a MACSQuant Analyzer instrument (Miltenyi). For each cell line and anti-C16orf54 antibody, a fold change was derived by dividing the median fluorescence intensity for Phycoerythrin in the live cell population for the anti-C16orf54 antibody by the median fluorescence intensity for Phycoerythrin in the live cell population for the IgG isotype control antibody.
# [5] = tested on: cyno C16orf54 extracellular domain peptides; assay: C16orf54 peptide ELISA, cyno extracellular domain peptides; format: binding; details: 10 μg/ml antibody
# Chain of cyno C16orf54 extracellular domain peptides (as listed by the source): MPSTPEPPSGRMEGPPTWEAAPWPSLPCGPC
# Experimental: as §1
# [6] = tested on: C16orf54 ECD peptides; assay: Peptide crossblocking (Table 36); format: binding
# [7] = tested on: cyno C16orf54; assay: Flow cytometry cross-reactivity with sarcoma cells expressing cyno C16orf54 (fold change over isotype); format: binding, cynomolgous monkeys; details: 10 μg/ml antibody
# Chain of cyno C16orf54 (as listed by the source): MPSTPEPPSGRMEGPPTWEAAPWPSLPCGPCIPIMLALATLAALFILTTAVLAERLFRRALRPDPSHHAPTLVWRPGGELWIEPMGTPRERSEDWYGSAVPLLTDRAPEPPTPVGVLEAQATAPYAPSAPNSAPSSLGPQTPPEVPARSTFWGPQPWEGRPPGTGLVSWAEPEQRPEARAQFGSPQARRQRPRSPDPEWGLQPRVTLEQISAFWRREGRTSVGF
# Experimental: as §2
# [8] = biological target: T4, N-terminal 32 amino acids of huC16orf54; assay: Off-rate screen of hybridoma supernatants on OctetQK384 (biolayer interferometry); format: binding; details: calculated off-rate
# Experimental: Eight anti-huC16orf54 monoclonal antibodies were further screened for binding and subsequent off-rate analysis using the OctetQK384® sytem (ForteBio). Hybridoma supernatants were screened for association to and dissocation from streptavidin sensors coated with the N-terminal 32 amino acids of huC16orf54 coupled to biotin, and the calculated offrates (kdis) are shown in Table 31. Cloned hybridomas with […] off-rates were carried forward for antibody purification.
# [9] = biological target: T4, N-terminal 32 amino acids of huC16orf54; assay: Affinity measurements of purified antibodies on OctetQK384; format: binding; details: purified antibody, streptavidin sensors coated with N-terminal 32 amino acids of huC16orf54 coupled to biotin
# Experimental: Affinity measurements of purified anti-huC16orf54 antibodies were carried out on the OctetQK384® sytem (ForteBio). After coating streptavidin sensors with the N-terminal 32 amino acids of huC16orf54 coupled to biotin at the C-terminus, association and dissociation of purified anti-huC16orf54 antibodies was monitored. KD values were derived using ForteBio's software.
# [10] = biological target: T5, huC16orf54 (cells expressing C16orf54); assay: Competition ELISA to establish relative binding properties; details: hybridoma supernatant; 2 hours with competing mixture of antibodies of a different isotype
# Experimental: Another competition ELISA was performed to establish relative binding properties. Individual anti-huC16orf54 isotyped (e.g., IgG2a) antibody containing hybridoma supernatants were allowed to bind to huC16orf54 in individual wells of an ELISA plate containing cells expressing C16orf54. After 30 min, the wells were washed. Then individual wells of the ELISA plate were incubated for 2 hours with either buffer or a competing mixture of anti-huC16orf54 isotyped antibodies (of a different isotype, e.g., IgG1 and IgG2b in the case of an IgG2a antibody). After washing, the wells were incubated with a specific secondary antibody (for example, Jackson Immunologicals Goat×IgG2a HRP—Product#115-035-206) and detected with SuperSignal® ELISA Pico Chemiluminescent substrate (Thermo Scientific—Product#37069). For each anti-huC16orf54 isotyped (e.g., IgG2a) antibody containing hybridoma supernatant, relative binding properties were calculated as follows: [(Average luminescence in wells incubated with buffer)−(Average luminescence in wells incubated with mixture of anti-huC16orf54 isotyped antibodies of a different isotype)]/[(Average luminescence in wells incubated with buffer)].
# [11] = tested on: KG-1 (acute myeloid leukemia) xenograft; format: in vivo, NOD-SCID mice
# Experimental: Subcutaneous tumors are generated by injection of 1×10^7 cancer cells in a mixture of PBS (without magnesium or calcium) and BD Matrigel™ (BD Biosciences) at a 1:1 ratio in the right flank of female SCID or nu^−/− mice. The injected total volume per mouse is […] with 50% being Matrigel (BD Biosciences). Mice are randomized once tumors reach a size between 65-200 mm^3. Antibodies are administered weekly, and body weights and tumors are measured once and twice weekly, respectively. Tumor volume is calculated as described (van der Horst et al. (2009) Neoplasia 11: 355-364). As a negative control, mice are injected with either purified mouse IgG or PBS; or a purified monoclonal antibody that recognizes an antigen other than C16orf54.
# Anti-C16orf54 antibodies were tested for their anti-tumor activity in an animal-tumor model. For these studies, the cell line KG-1 (acute myeloid leukemia) was obtained from ATCC and cultured according to the suppliers' protocols. Animals were obtained from Taconic (Hudson, N.Y.). Studies were conducted with anti-C16orf54 antibodies and antibody-drug conjugates (ADCs) of these antibodies.
# In these experiments, 4-6 week-old immunodeficient NOD-SCID female mice were used for the KG-1 tumor model. Mice were subcutaneously injected on the right flank with 6×10^6 viable cells (KG-1) in a mixture of PBS (without magnesium or calcium) and BD Matrigel™ (BD Biosciences). Once the tumor reached a size between 65-200 mm^3 mice were randomized. Anti-C16orf54 antibodies were administered weekly, and bodyweights and tumors were measured once and twice weekly, respectively. Tumor volume was calculated as described (van der Horst et al., supra). Experiments were performed on groups of at least eight animals per experimental point.
# Statistical significance between treatment and control groups was calculated using the Graphpad Prism® software package and applying Student's two-tailed t-test. A p-value of less than 0.05 was considered significant.
Molecule,binding to peptide-Fc fusion proteins (Fc-based ELISA) [1],binding to peptides derived from the extracellular domain of C16orf54 (peptide ELISA) [2],Human ECD & ECD fragments bound by antibody [3],binding to C16orf54-expressing cells (dual binders) [4],Cyno ECD bound by antibody [5],Peptide crossblocking [6],Median fold change relative to IgG control in F279-cyno-C16orf54 cells [7],kdis [8],"binding to human C16orf54 (flow cytometry) ([4]; sarcoma cells expressing human C16orf54, 10 μg/ml antibody)",kdis [9],kon [9],relative binding properties: signal loss upon incubation with competition mixture [10],"tumor growth inhibition (in words) ([11]; KG-1 xenograft, compared to control IgG, antibodies weekly)","TGI (tumor growth inhibition) ([11]; Table 42, KG-1 AML model, NOD-SCID mice, weekly administration)","Mean (tumor volume) ([11]; Table 42, KG-1 AML model, NOD-SCID mice, weekly administration, in mm³ (unit assumed))"
"R29-8-75B: murine anti-C16orf54 monoclonal antibody; VH SEQ ID NO: 56, VL SEQ ID NO: 58 (antibody, V domains shown, R29-8-75B heavy chain variable region; R29-8-75B light chain variable region) VH: MDSRLNLVFLVLILKGVQCDVQLVESGGGLVQPGGSRKLSCAASGFTFSRFGMHWVRQAPEKGLEWVAYISSGSSTIYYADTVKGRFTISRDNPKNTLFLQMTSLRSEDTAMYYCARVDYDVALAYWGQGTLVTVSA VL: MKLPVRLLVLMFWIPASSSGVLMTQTPLSLPVSLGDQASISCRSSQSIVHRNGNTYLEWYLQKPGQSPKLLIYKVSNRFSGVPDRFSGSGSGTDFTLKISRVEAEDLGVYYCFQGSQWTFGGGTKLEIK",able to bind to the peptide-Fc fusion proteins,bind to the various peptides derived from the extracellular domain (ECD) of C16orf54,"aa1-31, aa1-15, aa9-24",bind to C16orf54-expressing cells,aa1-31,"aa1-31, aa9-24",,,,,,,,,
"R29-8-58C: murine anti-C16orf54 monoclonal antibody; VH SEQ ID NO: 40, VL SEQ ID NO: 42 (antibody, V domains shown, R29-8-58C heavy chain variable region; R29-8-58C light chain variable region) VH: MNFGFSLIFLVLVSKGVQCEVKLVESGGGLVKPGGSLKFSCAASGFTFSSYAVSWVRQTPEKRLEWVASITSGGRSYYPDSVKGRFTISRDNARSMLYLHMSSLRSEDTAMYYCTRGWDENDLWGQGTTLTVSS VL: MKLPVRLLVLMFWIPASSSDVVMTQTPLSLFVSLGDQASISCRSSQSLLYSNGNTYLHWYLQRPGQSPQLLIYKVSNRFSGVPDRFSGSGSGTDFTLKISRVEAEDLGVYFCSQTTHVPWTFGGGTKLEIK",,,,,,,1.4,,,,,,,,
"R29-7-2A: murine anti-C16orf54 monoclonal antibody, IgG2b; VH SEQ ID NO: 4, VL SEQ ID NO: 6 (antibody, V domains shown, R29-7-2A heavy chain variable region; R29-7-2A light chain variable region) VH: MLLGLKWVFFVVFYQGVPCEVQLVESGGGLIQPKGSLKLSCVASGFSFNTHAMNWVRQAPGKGLEWVARIRSKSNNYARYYADSVKDRFTISRDDSQSILYLQMNNLKTEDTAMYYCVKQGDGGFAYWGQGTLVTVSA VL: MDSQAQVLMLLLLWVSGTCGDIVMSQSPSSLAVSVGEKVTMSCKSSQSLLYSSNQKNYLAWYQQRPGQSPKLLIYWASARESGVPDRFTGSGSGTDFTLTISSVKAEDLAVYYCQQYYSYPPTFGAGTKVELK",,bind to the various peptides derived from the extracellular domain (ECD) of C16orf54,"aa1-31, aa1-15, aa9-24",bind to C16orf54-expressing cells,,aa1-31,,0.00707 s⁻¹,bind human C16orf54,4.12e-05 ± 9.7e-06 s⁻¹,31900 ± 4600 M⁻¹ s⁻¹,little signal loss upon incubation with the competition mixture,did not induce any statistically significant tumor growth inhibition,−17%,2572.5
